According to the DeepSol protein solubility set:

Test: soluble on expression in E. coli; label from the status in PepcDB or PDB records

Sequence: MMTRKKELAIALSKLKGFKNPKVWLEQYRTPGNAASELLWLAYSLGDIEGKVVADLGAGTGVLSYGALLLGAKEVICVEVDKEAVDVLIENLGEFKGKFKVFIGDVSEFNSRVDIVIMNPPFGSQRKHADRPFLLKAFEISDVVYSIHLAKPEVRRFIEKFSWEHGFVVTHRLTTKIEIPLQFFFHRKKLERITVDIYRFSKVINSR
- soluble on expression in E. coli: soluble

Sequence: MAVKINDLTLPKEKLENEYQVVQVSLWQKDGEALGWTYECVLPKLRFEKISVKVKSEAPVITKETLDEKGMAIVRFDNLMITPWGRVNGQFVSYGLTATAYKATLVPNK
- soluble on expression in E. coli: not soluble

Sequence: MAAACICQPNLLEINVSDGPLDMIRKKRKIQQPQLRPPLRENKCQPHFSVRKVNQSYIISLHKEITCQLIAEIVKQKLSRIWEKVYIPSYELISDKDGNQIYVEQSVDENRLTSEIMEKLDPNNIDIEAIEILFDDYHLELSRLTNGIIISSANDHFYREFSFNNIIDDNFKICGTSMSADSFDKIYGVMWIEVPFNGNGLQNDSAVNRVSTSHNQIEELNDIEQEIRAFNISRSNQESIIKKEVSRRLNGR
- soluble on expression in E. coli: not soluble

Sequence: MGSDKIHHHHHHMLSIERQCQCMQLLIETFTVPIEIRALKTANIYRLETDDSAFLIDSGMSDNSIKSIEQNLKKIDFVFITHLHIDHLGGVLYLHEKYGIPAYMNHLDLDLIMNANEDRDGYIKRHSEIFRVNGVPPSMVEEIITMHPVIRYFDYYSKLDFVQDYRKINASGIKFVEVPGHSPGSTAVYIEDSRDLFAGDHILDRITPNIAVYGDEDDLGNYLESLEKVRAMKVDRIFPGHGNVITEPKIRIDDIEKHHHDRMRAIIAALKSPKTAYEVARDITWSKGRKMDTMNFMERNFAILETVSHLKHMDRKGMVRRIEENGIIKYSYIQ
- soluble on expression in E. coli: not soluble

Sequence: MAGDPMKKRFSNKVLIIGYGSVSQCTLPLLLDKLDIPLENITLIDFEDKSKALKKYTNQGLTFVREKITPENLDQVLSQNMENEGMIIDLSWNIDANEIVKWCHDHDVLYVNTSVEVWDPAEKFLTQSLLEKSLYLRQMRLQELSRDWKDAPTAVVDHGANPGLITHFVKQGLLDIAARTCEDKKVSPEDEQEIALLAKNRDFARLARKLGIRVIHCSERDTQIASRPKEVNEFVGTWSIEGLREEGTAPVEIAWGTHESKLPPLAHIPPYGPKNVILLPQMGVNAWVRSWIPDEEIVGMAIRHGESYGLSKLLTVWEGEKAVYRPTVHYAYMPSHDTLSSLCELRGRNYELQPRLRIMTNEIVSGEDIMGALLMGHSYNSWWTGSALSIEEARSLAPGQNATTLQVAAGIVAAILWMLENPREGVKTPEDLPHDFVLDIARPYLGKFISTPSDWTPLKNRKIFFKESPAVKHDPDPWQFENFIFVGLEHHHHHH
- soluble on expression in E. coli: soluble

Sequence: MNRKTGTTTVGIKVKDGVILAADTQASLDHMVETLNIRKIIPITDRIAITTAGSVGDVQMIARILEAEARYYYFAWGRPMTTKAMANLLSNILNENKWFPYLVQIIIGGYVDEPTIANLDPYGGLIFDNYTATGSGTPFAIAILEEGYKENLGIEEAKELAIKAIKAAGSRDVYTGSKKVQVVTITKEGMQEEFIKL
- soluble on expression in E. coli: soluble

Sequence: MGSDKIHHHHHHMRGRGMDIFISKKMRNFILLAQTNNIARAAEKIHMTASPFGKSIAALEEQIGYTLFTRKDNNISLNKAGQELYQKLFPVYQRLSAIDNEIHNSGRRSREIVIGIDNTYPTIIFDQLISLGDKYEGVTAQPVEFSENGVIDNLFDRQLDFIISPQHVSARVQELENLTISELPPLRLGFLVSRRYEERQEQELLQELPWLQMRFQNRANFEAMIDANMRPCGINPTIIYRPYSFMAKISAVERGHFLTVIPHFAWRLVNPATLKYFDAPHRPMYMQEYLYSIRNHRYTATMLQHIAEDRDGTSH
- soluble on expression in E. coli: not soluble

Sequence: MGSDKIHHHHHHMAKDITLRQLRYFIAAARAGQFSMAATNEHVSQSAITNAVIALEQALGTKLFDRGAHGVTMTVDGHDFYHHARHVLDSVRDAMHKPRAGARATSGTVRIAASYAVLGYFLPELLARFRASFPAIELDLRDMDRAVIENAVLDGTIDLGVTLVSNTPRLDAFEHRILIRSRRQLWTAPSHPLAHAASMSLADIAMHPYILLTVDEGEASTTRYWQAKGMQPNIAFRTGSMEAVRGLVANGFGVTVLSDMLFRAWSLDGTRIDARPVVDSIPPMEVGLIWRPGAALAPAAQQLRHFLIQVNSGEAD
- soluble on expression in E. coli: not soluble

Sequence: MGSDKIHHHHHHMKYLPLGSTGLTVSECGFGCIPIIRLPQDEAVRVLRHAFDRGITFFDTANAYRDSEEKMGIAFAGIRHKLVIATKSLLRSAEGVTGHVENSLRKLGTDYLDLYQLHQIAQEKDWAEVTGPSGALEAAMAAKAAGKVRHVGVTSHNLEMALKLVRTGLFDTIQFPFNLIEEGAKDELLGAARDAGMAFICMKPFGGGVIDNAAVAFTYLRSHDGIFPIPGFESCAQVDEVLSFYERDNVVTEQDLAIMEQYRRELGKRFCRRCEYCQPCPQGVMITPAMGYPIVASRMSPAVAAEFCSKAMETVPLCTECGACIARCPYELPISDILKANYAMYRGHVAGSQGGFAGGKSS
- soluble on expression in E. coli: not soluble

Sequence: MRDLYPLTRRRLLTAMALSPLLWQMNTAQAAAIDPRRIVALEWLPVELLLALGITPYGVADVPNYKLWVSEPPLPDSVIDVGLRTEPNLELLTEMKPSFMVWSAGYGPSPEKLARIAPGRGFDFSDGKKPLAVARRSLVELAQTLNLEAAAEKHLAQYDRFIASQKPHFIRRGGRPLLMTTLIDPRHMLVLGPNCLFQEVLDEYGIVNAWQGETNFWGSTAVSIDRLAMYKEADVICFDHGNNTDMNALMATPLWQAMPFVRAGRFHRVPAVWFYGATLSTMHFVRILNNVLGGKA
- soluble on expression in E. coli: not soluble

Sequence: MNNKYQMGVSTNLKYKGISLGIDFDIRQGGVMYSRTKDINYFTGNAIQTAYNDRNPLIVPNSVNKIVNGENVTYVENTTPITSSNIYKYWGDGGSDMGSCFLVDKSYVKLRSVVLGWDLPKRWLAKTPFQAVKVSAYGNNLFVWTPSSNTFIDPEMTSFGNDLEGNYGEYTANPSSRRFGFNLMVKF
- soluble on expression in E. coli: not soluble

Sequence: MSLGPMRDLTWGQINFIHTTDTHGWIGGHLQEPQYSADWGDYISFTKHMRDQADKRGSDLLVIDTGDRIEGNGLYDASTPKGLFQYDIYAEADVDIMSTGNHELYKAYSADMEHNTTVPNYKNSYLASNLDYISFETGDRVPQAPRYKKFKTKNQGLNIVAFGFLFDFTGNANNTVVQPVEDTIKEDWFQEAIHEKPDLFVVIGHVGLRMEEFKVIYTAIRKQNWHIPIAFFGGHAHVRDTVQYDSKALAIASGRYFETIGWMSIDGIKKGGAKDVEAAASPTEGHHHHHH
- soluble on expression in E. coli: soluble

Sequence: MGSDKIHHHHHHMRVGLTLYGSLDEQSGGFRYDRKLVEGLRAAGDTVECIQLPWRDYHRGLLDNGSRKLRQRLDVDVDVMLQDELAHPSLVRTNRALSYPIVSIVHHLRASEPRRLAPLYRAVERRYLGTVQAVVCNSATTRNVVTNLGVDPEDTVVAPPAGDQFDPDIDRATIERRATTEPLQVVFVGNVSPRKGLDTLVDGVAAAAVDIDLTVVGRHVDAAHVTSVQERVREHDLADRVQFAGRLPDGELAKTLRSSHVLAVPSRYEGFGIVYLEGMSFGLPALATRAGGAADIVTDDETGVLVDPDDSAAVARELERFATDRDRLAEMGWAARRNYETHPDWEETVGRVRDLLSDIVQPTEVPA
- soluble on expression in E. coli: not soluble

Sequence: MAHHHHHHMASLMGFLTVSKISEPPKASVAQEAFDYIYERIAAPAEVDVERFLEIGHFESLATATCLSLEDLSLYLFAFAVDESAKRIYKISEKHFVAWMAGLISKLPRNAAPPTRENAYAPLFAAAHDAIVDLNNTIRSNEEKRSKFYQFLYNWCLKGNDASDRVDSAKELWSCFFSASPVSLTVEEARRKFTAYVCFPRINQWLDFITMLGEKATESKSGRVAVEQSGVSFDTWTQLLLFARFDNYDAYDDEDSWPVTMDDFVVYVRKLEESKKV
- soluble on expression in E. coli: not soluble

Sequence: MSLSLKLPKADRSIETYRLAASRTFPARLEGPLNRIAFSAVHTVADPFADNDPWLSVAVDWDKTIAFREHVWDLGLGVAEAMDTAQRGMGLDWPTSLELITRSVAAAKRRNALVFSGAGTDHLAVEDARTVDDVIRAYEEQISAVEKVGGRIILMASRALAKLGRNADDYAKVYDRVLSQVREPVIIHWLGDMFDPALTGYWGTKDLDKAMDVAVAVINANAAKVDGVKVSLLDKQREIDMRRRLDKRIRMYTGDDFNYAELIAGDSQGFSHALLGIFDAIAPAASYALSRLAAGDEAGFHDVLGPTVPLSRHIFKAPTRFYKTGVVFMAYLNGHQDHFTMVGGQESARSMLHLAELFRLADQAGLLANPELATRRMTTVLASHGIESEGHHHHHH
- soluble on expression in E. coli: soluble

Sequence: MGTETVSFKWEGKKVAQVNGVTAEKVWSVFSDFCNVQEWFPSVDTCYRVQGTDGVPGLIRYCSTTKTKEEGSRWAKEKLVKIDPIGRCLSYEILENNVGFRSYVATVQVTPVDGEDQVSRIEWSFVADPVDGWKKEDLESYVDFCLQHMANKMELNL
- soluble on expression in E. coli: soluble

Sequence: MTNELLIEIGTEELPAGVINPALDYLKDKINSLLNARQVKTYGTPRRLTLYFKDFENERKEKKEVIWGPPKNVAYDEKGNPTKALEGFLKKNNASLEEVKVLKKDKGEYVAIVRKVIEKSPIEKLQEEFEEILLSVPFPKRMRWTSSKRITFSRPVRWILALFNGQVLKLRFGELESSNKTYGHRFLSKGEVTINNPADYEKTLKEHYVIPDFNERKEIILRALEKSSQEVGGKPSYPEGLVEEVTNLVEYPFPVLGKFDEKYLELPPLVITTVAAHHQRFFCFEKDGKLLNYFLGISNNKPNEKIKEGYEKVLRARLEDALFFYREDLKKDLKSLIPELKKVLFHPKVGSMYEKEERMEKIAQKLCPLLKCEWEKVKEAVWLSKVDLLTEMVKELDELQGYMGYVYAKAQGYDEEVAKALWEQYFPRSLEDKVPETTTGTILSLSDKIDNLYSFFKAGEIPKGSSDPYGLRRSAFGIIKIVDVKNLDLNLEDFKEIYGEFKQYPKLVEFLKQRLISYLEDYPVDIVRAVLNVYSPMEPYKVINSVRVLYEASKSPEFPSVVEAAKRVIRIIPKDWKNYEVDEKLLSEEAERELYQKLTEFENKELKSPLELLPLKEYIDKFFDNVKVMAEDEKIRNNRISLLKRVENLFRTFGDFNEIVIKEG
- soluble on expression in E. coli: soluble

Sequence: MGHHHHHHSHMAFPGQSDTKMQWPEVPALPLLSSLCMAMVRKSSALGKEVGRRVKEMVMLVAPFRQSSSLSRTFSSRKVVKAHASLHGARLSPLSRNIRG
- soluble on expression in E. coli: not soluble

Sequence: MAHHHHHHMNAVKLPEEWETLCSTNDAEVIHECINGVFRRLLANLLLDFNNPKLRQVKKDNKALHRLTDSLPAGFIEFLFSSIGFVEHDDVFIFEGSPESLKHGDAVLSYIEDSFGKERLQAAECELHRLRNLAIKKAENGLAPREMMTATAPLPRTQPLPQEEDAKRQAQHSGTEKDVAEEHAVKETVRKTLLNTGRVRNGFFEARDFSVRIMQHGRVYACTEKCPDHCVEVHWHLLTGRNILYSHLAHLSADGTRLLHLGPEHGYQYNSLPGSANFGKMIHFSEKLMDENGRLVHIKNDDKPVTACIYCGRAFAQLLL
- soluble on expression in E. coli: not soluble

Sequence: MGSDKIHHHHHHEDDCATNPEPAGDVTEIKLSAGIQGVATRTPVSTNDNITAPFVASATTGDYTTNAWSSTVTFVASPTPTAALSFSPARYYPVDNSPIYIRGYYPAGTLSGKTVTLAGDGTEDVMLTAQASGTKATAGALSFVFNHLLTQLQFKLVAGAGYPASGVNVTSLVIKQQKTPATLDLNTSSLTYTTKDLTLSGTFPILTAGSTINNYPMVKSGEALTVAVTTSDGVTYPESTISVTTEVGKSHLITLTFTPKEITSSISVTAWQTGGTGSSTLQ
- soluble on expression in E. coli: not soluble

Sequence: MSLTLLALGINHKTAPVSLRERVSFSPDKLDQALDSLLAQPMVQGGVVLSTCNRTELYLSVEERDDLQEALIRWLCDYHNLNEDDLRNSLYWHQDNDAVSHLMRVASGLDSLVLGEPQILGQVKKAFADSQKGHMKASELERMFQKSFSVAKRVRTETDIGASAVSVAFAACTLARQIFESLSTVTVLLVGAGETIELVARHLREHKVQKMIIANRTRERAQILADEVGAEVIALSDIDERLREADIIISSTASPLPIIGKGMVERALKSRRNQPMLLVDIAVPRDVEPEVGKLANAYLYSVDDLQSIISHNLAQREGHHHHHH
- soluble on expression in E. coli: not soluble
